Experiment: label from the status in PepcDB records
For “IPLKSIEVPFEGELLPGYAIISEDKAQDTLIVVGGGDTSREDLFYMLGYSGWEHDYNVLMVDLPGQGKNPNQGLHFEVDARAAISAILDWYQAPTEKIAIAGFSGGGYFTAQAVEKDKRIKAWIASTPIYDVAEVFRISFSTALKAPKTILKWGSKLVTSVNKVAEVNLNKYAWQFGQVDFITSVNEVLEQAQIVDYNKIDVPSLFLVGAGEDSELMRQSQVLYDNFKQRGIDVTLRKFSSESGADAHCQVNNFRLMHYQVFEWLNHIFKKKD”, the protein production was “failed”.
In the case of “IPVFNITSNRGRLLQQISVGDIWGVGRQWANKLISRGIHTAYDLAMTNPHLLKKCFNAVLMRTAMELQGIACGG”, the protein production is reported as “failed”.
In the case of “IQHATASLIQTNTDQELLVVDVTPSFASLWLVPNINDFHQRHPNIRVKILTGDGAVKNIHGESDLHVRCLPLSTHYEYSQLLCEETLLLIGNTNLPKLSDNQAISHYPFIPQTTRPQLWEQFKQENDLECPITYHSVGFEHFYLACEAVRMEKGLALLPDFMAQFSILRGDIQHIGNLKLHSGYGYYVVIPNFRLTSRKVALFHDWLKDKLTHHT”, the protein production is reported as “not failed”.
For “IQNNEATLRCIVENLPIFFGMRTINFSNWYYINPSFESLTGYTPDEMYEDPLLWQKIHREEYAENLEQARPNLGEWTIFSMEKKDGTQIWAQTVEFLVDDLSDTARVVVFGQDITDIKRAEIETLRSLVKERELNEAKSQFVDIVSHEFRTPLTSIIGF”, the protein production was “failed”.
In the case of “ISLKYTAARLHEKGVLLEIEDLQVNQFKNVIFEISPTEEVGDFEVKAKFMGVQMETFMLHYQDLLQLQYEGVAVMKLFDRAKVNVNLLIFLLNKKFYGK”, the protein production is reported as “not failed”.
For “ITERHLIEESLKESQQRWEFALEGSGDGIWDWGVMEDRLFLSARLQEMFGYARGEMGESMEQASSFILKEDRARVLSTLYRFLKEGEGQYADEFRVNCKEGGYRWIFSRGMVVKRNAQGEAARMIGIFTDI”, the protein production was “failed”.
With “IVAQGEDFVVSGALNLSLIRERTGFQAKATEDYQTLAGLVMSLLDRLPSTGDSLSWQGWNLQVVGVEERRVTRVLLQKQPAASAGK” the protein production was “failed”.
In the case of “IVMADWLKIRGTLKSWTKLWCVLKPGVLLIYKTQKNGQWVGTVLLNACEIIERPSKKDGFCFKLFHPLEQSIWAVKGPKGEAVGSITQPLPSSYLIIRATSESDGRCWMDALELALK”, the protein production is reported as “not failed”.
With “IVPDAQDLGKSYGIRPSFIIAQAALDSDFGEKILANKYHNLFGLLAEPGTPSITLNDSSTGKKQEKQFTHYKSWKYSMYDYLAHIKSGATGKKDSYTIMVSVKNPKTLVQKLQDSGFDNDKKYAKKMTEIIDLYDLTRYDK” the protein production was “failed”.
In the case of “KALGSKEIPKGAENCLEGLIFVITGVLESIERDEAKSLIERYGGKVTGNVSKKTNYLVMGRDSGQSKSDKAAALGTKIIDEDGLLNLIRTMPGKKSKYEIAVETE”, the protein production is reported as “not failed”.
For “KAPLDEIADDSFWSDETLVKYYVNDLYSEISVDGLQLQENRSDNSVSAQRDKYRASWFKFNYDMVSASDPQDDDVWEDYYVKVRKCNRFFERIGTSTIEESEKSRLTGEVHFLRAMFYFEMVKRYGGVILLDKVLTMEDNWEIPRSSEKECYDFILEDLKKATEMLPASYGSREKGRATKGAAYALKSRVELYDKRYEDVIKSCAEVYKLGYELVDGTTPEKYRSIWWTTNKDNKEIIFDVQYKSPDVYNNMMVCNMVTYINDKYGDRGWGGLGPTQELIDAFEMADGTPATQYSQAPADQVFDINTCGIYEGREPRFYANIVFHGSQIFFNADKGAVTVDRYLMDTPDKGDGSLTGYNVWKWIDYDNYNYPYAGAGSPDFSTNWIILRYAEIYLNDAEARLETGDVEGARKAVNMIRQRVGLPDLTESDPEKLRELIRKERRIEFAFEEQRFYDVRRWKIGPETQTTLHGVRFVSPTEFKVTKTDIRTWNDRLYLTPVPHDEIVRSSVLKQNLGY”, the protein production was “not failed”.
With “KDDDNVETGAFDPSKPVAISDFTPKEGGAYQKLLIYGENFGTDVSKVKVKIGGKDAIVINVKSTYVYCFVPSGAFSGEIEITVGEGENAVTTTASTTFSYEKKMVVGTLCGYRNNRDDQGWRDGPFDGPEGVKCCGFSDNGRLAFDPLNKDHLYICYDGHKAIQLIDLKNRMLSSPLNINTIPTNRIRSIAFNKKIEGYADEAEYMIVAIDYDGKGDESPSVYIIKRNADGTFDDRSDIQLIAAYKQCNGATIHPINGELYFNSYEKGQVFRLDLVDYFKTIKNGGSWDPIVKNNPNTFKQLFTIADPSWEFQIFIHPTGKYAYFGVINNHYFMRSDYDEIKKEFITPYNFVGGYKQSGYRDDVGTEARMNNPCQGVFVKNPDYTGEEEYDFYFVDRLNFCVRKVTPEGIVSTYAGRGASTSLADGNQWGTDDGDLREVARFRDVSGLVYDDVKEMFYVHDQVGHTIRTISMEQEENVAGDENIPEDESTVESNE” the protein production was “not failed”.
For “KELIQNIIEESYTDSQFTLSVLSEKLDLSSGYLSIMFKKNFGIPFQDYLLQKRMEKAKLLLLTTELKNYEIAEQVGFEDVNYFITKFKKYYQITPKQYRE”, the protein production was “not failed”.
In the case of “KFDSDIDEVVYGSRLIGSDPDLVLHGGGNTSVKTTERDHAGRIISVLRVKNSGSNLGTIDSRGFTGIRMDDALAAAKIDKMTDEAMVDYLKKSMVNPSEPSPSVETFLHAFLPYKFVMHSHADAILSITNTDLPSDQIAKILGNVVVLPYIPPGFTLAKEVMNCFKKGIDGIVLRKHGLLTFGDTGKEAYDRHINIVSRAENFIREKTDGK”, the protein production is reported as “not failed”.
For “KGESYKGKVAVASVVLNRTEKKGFPDTIRGVIYQKNAFEPVANGSINQKPDKESIEAAEEALSSKNRETDAIFFYNPKTASDNWIRSRKIVEKIGRHVFAV”, the protein production was “not failed”.
In the case of “KIADWLELHPAEKRKPWCVGIPRLAELAWQRVVAQRDTFGEAQLAHRIRDYLPEQGQLFVGNSLVVRLIDALSQLPAGYPVYSNRGASGIDGLLSTAAGVQRASAKSTLAIVGDLSALYDLNALALLRQVSAPFVLIVVNNNGGQIFSLLPTPQSKRERFYLMPQNVHFDHAAAMFNLRYHRPENWEELESALAGAWRTPATTVIELVVNDTDGAQTLQQLLAQVSHL”, the protein production is reported as “failed”.
In the case of “KIIHIDCDCFYAALEMRDDPSLRGKALAVGGSPDKRGVVATCSYEARAYGVRSAMAMRTALKLCPDLLVVRPRFDVYRAVSKQIHAIFRDYTDLIEPLSLDEAYLDVSASPHFAGSATRIAQDIRRRVAEELHITVSAGVAPNKFLAKIASDWRKPDGLFVITPEQVDGFVAELPVAKLHGVGKVTAERLARMGIRTCADLRQGSKLSLVREFGSFGERLWGLAHGIDERPVEVDSRRQSVSVECTFDRDLPDLAACLEELPTLLEELDGRLQRLDGSYRPDKPFVKLKFHDFTQTTVEQSGAGRDLESYRQLLGQAFARGNRPVRLIGVGVRLLDLQGAHEQLR”, the protein production is reported as “failed”.
In the case of “KKGRFRERYSTRILDALPDMLTVFDHNANIVELASSPTTNHVEGTTSDSIINSNVKDIVPEEAYESVRHNMDKVIHTGKSSTAEHSLMLDGVLHHYENRIFPLDDQYLLCMCRDVS”, the protein production is reported as “failed”.
In the case of “KKPEGKPDQKFDQKQELGRVIHLSNLPHSGYSDSAVLKLAEPYGKIKNYILMRMKSQAFIEMETREDAMAMVDHCLKKALWFQGRCVKVDLSEKYKKLV”, the protein production is reported as “not failed”.
In the case of “KKYSYAVTTCIKHINKNVYDGISLNELANHLEITPTYLSKLFKKEMGITLSEYIQRERVEEAKKLLTLTTYSLSDICAWLNFNDQSYFIRVFKKITSMTPRQYREKYTV”, the protein production is reported as “failed”.
With “KLGMKPVSDVSRVTIKRAKNVLFVISKPDVYKSPNAETYVIFGEAKVDDLSSQLQTQAAQRFKMPDVTSMLPNAGSEATMAPLAEEEDEDDVDDTGVEARDIDLVMTQAGVSKAKAVSALKANDGDIVSAIMELTT” the protein production was “failed”.
In the case of “KLLAEALELTEDQYVVSFQSQFGRAKWVTPSTQDLFGKLPKQGVTELDVFCPGFLADCLETMEEIALMGREQFYEAGGKSYRYIPCLNDNPDWIDALVALAEENLGSWR”, the protein production is reported as “failed”.
In the case of “KLPFDYQVNSTRHFMRELNRLGVTGAIDAGGGFQNYPDDYAVIQKLDEEGLLTIRLAYNLFTQKPKGEKDDFLNWTKTSKYKQGNDYFRHNGAGEMLVFSAADFEDFRVPRPDMPPEMEGELEEVVRILVQNKWPWRLHATYDETISRALDVFEKVNQDTPLDGLHWFFDHAETISDRSIDRIAALGGGIAVQHRMAYQGEYFVERYGFGAAEATPPVRRILDSGVKVSAGTDATRVASYNPWVSLSWLVTGRTVGGLRITPQRNCLDRETALRMWTENVTWFSNEEGN”, the protein production is reported as “failed”.
For “KLRDLDIIVTAPPAPGWGGRYWILVKLTTDDGITGWGECYAASVGPEAMRAVIEDVFARHMEGENPENIELMFRRVYSSGFTQRPDLTAIGAFSGLEIACWDILGKARGRPVWALLGGKMNPRIRAYTYLYPLPHHPITPFWTSADMAAESAADCVARGYTAVKFDPAGPYTLRGGHMPAMTDISLSVEFCRKIRAAVGDKADLLFGTHGQFTTAGAIRLGQAIEPYSPLWYEEPVPPDNVGAMAQVARAVRIPVATGERLTTKAEFAPVLREGAAAILQPALGRAGGIWEMKKVAAMAEVYNAQMAPHLYAGPVEWAANVHFAASIPNILMCESIETPFHDALIKGSIRVEGGYITPPEAPGLGIEVDEALARANPYHGTGLHLEMQEASCDYTNGNSFAGGAPHEEG”, the protein production was “not failed”.
For “KMPSPYSHKEFVKEIAPTAQKLSKIYGVRSSIIIGQAALDSHFGSTLLASKYHNLFSIEASPGQGAVRLKSHEYKNGRWQEVTNRYLVYESWKESLYDYMAILHGNKIWDKALYTTMMTSSGYKTVARALQAAGFNSDPNYADKLIAVIEENNL”, the protein production was “not failed”.
With “KRIQYSVITILVLLIAVILIYMFSPLSKIAHVNINGNNHVSTSKINKVLGVKNDSRMYTFSKKNAINDLEEDPLIKSVEIHKQLPNTLNVDITENEIIALVKYKGKYLPLLENGKLLKGSNDVKINDAPVMDGFKGTKEDDMIKALSEMTPEVRRYIAEVTYAPSKNKQSRIELFTTDGLQVIGDISTISKKMKYYPQMSQSLSRDSSGKLKTRGYIDLSVGA” the protein production was “failed”.
For “KRREIPLKVLVKAVLFACMLMRKTMASRVRVTILFATETGKSEALAWDLGALFSCAFNPKVVCMDKY”, the protein production was “failed”.
With “KRRIRQLELQVRMLEADKERLERELSRLRSEMSRLRQPPAFAGSVIEVLDDDRAIVQNYNGPRFVVRIAPWIDKSKLRPGTRVALDQRTMAIIEILPASKDPAVLGFEVVERPN” the protein production was “not failed”.
In the case of “KRVFGFVSAKGGDGGSCIAANFAFALSQEPDIHVLAVDISLPFGDLDMYLSGNTHSQDLADISNASDRLDKSLLDTMVQHISPSLDLIPSPATFEKIVNIEPERVSDLIHIAASFYDYIIVDFGASIDHVGVWVLEHLDELCIVTTPSLQSLRRAGQLLKLCKEFEKPISRIEIILNRADTNSRITSDEIEKVIGRPISKRIPQDEDAMQESLLSGQSVLKVAPKSQLSKTIVDWALHLNGVSRPNKRSIWERLKIK”, the protein production is reported as “not failed”.
With “KSPGWMKHLDQEQAVHSESETYGISSWVYSARLPFHPQRFQHFLAHPWTNGTLLRCKGYIWNAKCYQDIGMLVQTGGQFEWEIVGRWWNFINQSDWPQDHYRRDSIFEKWDERTGDCRQEIVFIGQNIDWNTLKHQLDDCLLTLQEIEDGPEAWLNY” the protein production was “failed”.
In the case of “KVILYARVSSSTQKDELVNQVKYLEEQVKEYDLVITDIGSGLNMKRKGFLKLLRMILNNEVSRVVVAYPDRLVRVGFEILEEVCKAHNCEIVVLNQEDKEEELVEDLMSALVSFSGKLYGMRSHEYEKVKKCAEELKNW”, the protein production is reported as “not failed”.
In the case of “KVKELNLHELCAVCLEDFKPRDELGICPCKHAFHRKCLIKWLEVRKVCPLCNMPVLQLAQL”, the protein production is reported as “not failed”.
With “KVSVNDIMVPRNEIVGIDINDDWKSIVRQLTHSPHGRIVLYRDSLDDAISMLRVREAYRLMTEKKEFTKEIMLRAADEIYFVPEGTPLSTQLVKFQRNKKKVGLVVDEYGDIQGLVTVEDILEEIVGDFT” the protein production was “not failed”.

— a protein production outcome set (Wang et al. 2014)
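Also: failed if final PepcDB status was selected cloned or expressed and not failed if soluble or beyond.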
